Here are results for six molecules from patent publication US20260043020A1, “BINDING MEMBERS WITH ALTERED DIVERSITY SCAFFOLD DOMAINS” (priority 2016, published 2026).

For assay [1], the target named is T1, trypsin (Bos taurus, UniProt P00760).
T1 construct: gene PRSS1
T1 sequence (P00760 24-246): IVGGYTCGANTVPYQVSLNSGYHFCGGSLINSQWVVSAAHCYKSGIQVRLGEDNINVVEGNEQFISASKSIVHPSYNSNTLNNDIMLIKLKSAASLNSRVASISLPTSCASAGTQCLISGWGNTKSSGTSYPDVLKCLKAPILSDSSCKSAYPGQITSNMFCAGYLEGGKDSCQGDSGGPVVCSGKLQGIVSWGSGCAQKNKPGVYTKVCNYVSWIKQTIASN
Description: Monoclonal phage ELISA on trypsin, EET 5-3 framed KnotBodies. It counts as binding. Conditions: value in brackets after the clone name. An excerpt:
Following selection on trypsin, as described in example 3, positive clones were identified by monoclonal phage ELISA and their sequences determined. Examples of positive clones in CDR1 or CDR 2 of kappa and lambda light chains are shown in Table 29 with the linker sequences shown in lower case and the knottin donor in a 5-3 frame shown in italics. Also shown is the value of ELISA signal attained from monoclonal phage ELISA. The specificity of interaction was further confirmed by mutating the pair of Proline-Arginine residues involved in interaction with trypsin to alanine-alanine which diminished binding (as described in example 3).

Assay [2] has as its target T1, trypsin. Description: KnotBody Fab TRF binding assay on trypsin. As to conditions: Fab format.
For assay [3], the target named is T1, trypsin. Description: Monoclonal phage TRF binding assay on trypsin (KnotBody clones and GlyAla mutants). As to conditions: for % reduction in binding signal: GlyAla mutant (EETI-II Pro3 to Gly, Arg4 to Ala) of the clone versus the clone, monoclonal phage, trypsin on streptavidin plates; for Tryspin binding signal (FU): monoclonal phage supernatant of round-2 clones, biotinylated trypsin on neutravidin plates. The protocol: Phage display technology facilitates isolation of binders to any given target from large combinatorial repertoires based on proteins and peptides that can be presented on the surface of filamentous phage^105. In order to isolate functional knottin-antibody fusions from the KnotBody libraries multiple rounds of phage display selections on trypsin (cognate antigen for the EETI-II donor) were carried out. Phage particles were prepared by rescuing KnotBody libraries using trypsin cleavable helper phage^102,106Two rounds of phage display selections were performed on 10 μg/ml biotinylated trypsin immobilised on Streptavidin (for Round-1) or Neutravidin (for round-2) coated Maxisorp™ immunotubes (Thermo Scientific, Cat No. 444202). In both rounds of selection, phage libraries were pre-incubated with streptavidin coated paramagnetic beads (Thermo Fisher Scientific, Cat. No. 11205D). These beads were removed prior to the addition the phage to the antigen tubes to limit the streptavidin binders entering the selection. Polyclonal phage preparations from round-2 selection outputs were analysed for trypsin binding using a time resolved fluorescence (TRF) binding assay. In this assay, polyclonal phage binding to biotinylated trypsin immobilised on neutravidin (Thermo Fisher Scientific, Cat. No 31000) coated Maxisorp™ plates (Thermo Scientific, Cat. No. 437111) was detected using a mouse anti-M13 antibody (GE Healthcare, Cat. No. 27-9420-01) followed by europium conjugated anti-mouse antibody (Perkin Elmer, Cat. No. AD0124).
In order to identify monoclonal KnotBodies with desired binding characteristics, 94 individual clones derived from 2 rounds of selection using EETI-II CDR1 or CDR2 libraries were picked into 96 well culture plates and phage were prepared from each clone. Methods for screening by monoclonal phage ELISA are known in the art^107. […] Clones with >3× binding signal above background were picked as positive clones and sequenced to identify unique clones. 14 and 42 unique binders were identified from EETI-II CDR1 and EETI-II CDR2 libraries respectively (Table 1). 18 binders from the EETI-II CDR2 library and 3 binders from the EETI-II-CDR1 library were chosen for further characterisation based on their VL and linker sequence diversity. These binders were assigned new clone identification numbers (Table 2).
The trypsin binding capability of EETI-II is attributed to proline (Pro3) and arginine (Arg4) residues present in its loop1 (GCPRILMRC; SEQ ID NO: 68). […] Monoclonal phage was prepared from the 21 selected clones and their mutant equivalents. […] Replacement of the trypsin-binding residues of EETI-II abolished the ability of all KnotBody clones to bind to trypsin (Table 3). In order to confirm that the loss of trypsin binding was not due to reduced expression or display of pIII fusion phage was prepared from 11 (randomly chosen) KnotBodies and their GlyAla variants were analysed on a western blot using an antibody which recognises the product of gene 3 (pIII) using an anti-pIII antibody (MoBiTec GmbH) (FIG. 6).

B1: F01: KnotBody with EET 5-3 framed EETI-II in kappa VL CDR2; SEQ ID NO: 312 (protein)
chain: DIQMTQSPSSLSASVGDRVTITCRASQSISSYLNWYQQKPGKAPKLLIDAAGECGPNGFCGSGSDGGVCPRINMRCKQDSDCLAGCGRDSGVPSRFSGSGSGTDFTLTISSLQPEDFATYYCQQSYSTPWTFGQGTKVEIKRT
modifications: F01 (101798)
B1: in assay [1], the “ELISA signal from monoclonal phage ELISA” value is “F01 (101798)”.

B2: G11: KnotBody with EET 5-3 framed EETI-II in VL CDR2; SEQ ID NO: 317 (protein)
chain: QSVLTQPPSVSEAPRQRVTITCSGSSSNIGNNAVNWYQQLPGKAPKLLIYAAGGCGPNGFCGSGSDGGVCPRILMRCKQDSDCLAGCGQSSGVSDRFSGSKSGTSATLDITGLQTGDEADYYCGTWDNSLSVGVFGGGTKVTVLGQP
modifications: G11 (27650)
Take B2: the “ELISA signal from monoclonal phage ELISA” value in assay [1] is listed as “G11 (27650)”.

B3: F07: KnotBody with EET 5-3 framed EETI-II in VL CDR2; SEQ ID NO: 314 (protein)
chain: QSVLTQPPSVSEAPRQRVTITCSGSSSNIGNNAVNWYQQLPGKAPKLLIYAAGGCGPNGFCGSGSDGGVCPRILMRCKQDSDCLAGCGGQSGVPDRFSGSKSGTSASLAISRLQSEDEADYYCAAWDDSLNAYVFGTGTKVTVLGQP
modifications: F07 (72824)
With B3, the “ELISA signal from monoclonal phage ELISA” value in assay [1] is reported as “F07(72824)”.

B4: KB_C09: KnotBody, EETI-II in VL CDR2; VL SEQ ID NO: 120 (antibody, V domains shown)
VL: QSVLTQPPSVSEAPRQRVTITCSGSSSNIGNNAVNWYQQLPGKAPKLLIYAAGRCPRILMRCKQDSDCLAGCVCGPNGFCGGGSGVPDRFSGSIDSSSNSASLTISGLRAEDEADYYCQSYDSSNHWVFGGGTKLTVLGQP
modifications: EETI-II in VL CDR2; CDR2_C_08
With B4, in assay [2], the “TRF signal for 0.6 ug/mL Fab” value came out at 46788, the “TRF signal for 2.4 ug/mL Fab” value amounted to 204878 and the “TRF signal for 10 ug/mL Fab” value worked out at 288988. In assay [3], the “% reduction in binding signal” value is on record as 100% and the “Tryspin binding signal (FU)” value came out at 89424 FU.

B5: KB_C10: KnotBody, EETI-II in VL CDR2; VL SEQ ID NO: 123 (antibody, V domains shown)
VL: QSVLTQPPSVSEAPRQRVTITCSGSSSNIGNNAVNWYQQLPGKAPKLLIYAAGPCPRILMRCKQDSDCLAGCVCGPNGFCGADSGVSDRFSGSKSGTSASLAITGLQAEDEGDYYCAAWDDSLNGLVFGGGTKVTVLGQP
modifications: EETI-II in VL CDR2; CDR2_E_05
Take B5: in assay [2], the “TRF signal for 0.6 ug/mL Fab” value is given as 41709, the “TRF signal for 2.4 ug/mL Fab” value worked out at 146488 and the “TRF signal for 10 ug/mL Fab” value amounted to 238066. For the same molecule, in assay [3], the “% reduction in binding signal” value worked out at 100% and the “Tryspin binding signal (FU)” value is on record as 118631 FU.

B6: KB_B11: KnotBody, EETI-II in VL CDR1; VL SEQ ID NO: 86 (antibody, V domains shown)
VL: QSVLTQPPSVSEAPRQRVTITCGSRPCPRILMRCKQDSDCLAGCVCGPNGFCGSHNWYQQLPGSSPTTVIYEDNQRPSGVPDRFSGSIDRSSNSASLTISGLKTEDEADYYCQSYDSSNHRVVFGGGTKLTVLGQP
modifications: heavy chain missing; CDR1_F_02
On to B6, for which, in assay [3], the “% reduction in binding signal” value is recorded as 100% and the “Tryspin binding signal (FU)” value was 10286 FU.
